Laboratory results as given in US20090232783, “Method for Regulating Production of Hemoglobin Beta Chains” (published 2009).

B1: mutant oligo no. 2 (dsDNA)
DNA 1: AACTCCTAAGCCAGTGCCAGAAAAAACAAGGACAGGT
DNA 2: ACCTGTCCTTGTTTTTTCTGGCACTGGCTTAGGAGTT
B2: mutant oligo no. 3 (dsDNA)
DNA 1: AACTCCTAAGCCAGTGCCAGAACAGCCAACCCCCCGT
DNA 2: ACGGGGGGTTGGCTGTTCTGGCACTGGCTTAGGAGTT
B3: mutant oligo no. 1 (dsDNA)
DNA 1: AAGGGGGGAGCCAGTGCCAGAAGAGCCAAGGACAGGT
DNA 2: ACCTGTCCTTGGCTCTTCTGGCACTGGCTCCCCCCTT

target: Nuclear ferritin-H (K562 nuclear extract, crude or heat/proteinase K enriched) (Homo sapiens, UniProt P02794 P02794:2-183); experiment: competition; competes about as well as wt; conditions: protein: extract
Procedure: Gel mobility shift assays. Gel retardation assays (i.e., gel shifts) were used to determine DNA binding of the extract proteins to the Rsa I (95 bp) fragment and synthetic oligonucleotides (Berg et al., (1989) Nucleic Acids Res 17, 8833-52; Fried & Crothers (1981) Nucleic Acids Res 9, 6505-25). Each reaction contained 0.5-2 ng of DNA, 1.0-5.0 ug of extract protein, 1.0-5.0 ug of poly dI:poly dC, 100 mM KCl, and binding buffer (Berg et al., (1989) Nucleic Acids Res 17, 8833-52). Unlabeled competitor oligonucleotides ranged from 15- to 2000-fold molar excess and were included in the reaction mixture with the probe before adding protein. Gels used for retardation assays were 4%, 5%, or 6% acrylamide and the running buffer was low ionic strength TAE (Berg et al., (1989) Nucleic Acids Res 17, 8833-52).
Definition of the binding site with competition gel shifts. To further localize the binding of ferritin, the 37 bp oligonucleotide was mutated in different places, replacing six nucleotides at a time with all A's, all C's, or all G's, with complementary nucleotide replacements in the opposing strand (FIG. 4A). A competition gel shift assay was done with the partially purified protein from heated K562 nuclear extract, in which each of the unlabeled mutant oligos as well as the native sequence was competed against the 32-P-labeled native sequence for binding.

Binding signal, ~1 fold:
B1
B2
B3
